Laboratory results: paper PMC2409434

Tested on: ArgR (arginine repressor) (Escherichia coli)
Assay: EMSA
Details: EMSA essentially as Burke et al. 1994 with 1 mM L-arginine; ArgR dilution buffer 20 mM Tris-HCl pH 8.2, 20 mM MgCl2, 150 mM NaCl, 5 mM DTT, 1 ug/ml BSA, 0.01% …

Row | Substance | K half [nM]
1 | cer 190 bp Arg-box fragment | 10
2 | loxP 198 bp fragment (P1 putative Arg-box) | > 200
